According to article PMC2973826, “Translation Elongation Factor 1A Facilitates the Assembly of the Tombusvirus Replicase and Stimulates Minus-Strand Synthesis” (PLoS Pathogens, 2010):

Target: T1, MBP-tagged TCV p88C (lacking the p28-overlapping domain from the N-terminus) (Turnip crinkle virus, UniProt P17460 252-775)
T1 sequence: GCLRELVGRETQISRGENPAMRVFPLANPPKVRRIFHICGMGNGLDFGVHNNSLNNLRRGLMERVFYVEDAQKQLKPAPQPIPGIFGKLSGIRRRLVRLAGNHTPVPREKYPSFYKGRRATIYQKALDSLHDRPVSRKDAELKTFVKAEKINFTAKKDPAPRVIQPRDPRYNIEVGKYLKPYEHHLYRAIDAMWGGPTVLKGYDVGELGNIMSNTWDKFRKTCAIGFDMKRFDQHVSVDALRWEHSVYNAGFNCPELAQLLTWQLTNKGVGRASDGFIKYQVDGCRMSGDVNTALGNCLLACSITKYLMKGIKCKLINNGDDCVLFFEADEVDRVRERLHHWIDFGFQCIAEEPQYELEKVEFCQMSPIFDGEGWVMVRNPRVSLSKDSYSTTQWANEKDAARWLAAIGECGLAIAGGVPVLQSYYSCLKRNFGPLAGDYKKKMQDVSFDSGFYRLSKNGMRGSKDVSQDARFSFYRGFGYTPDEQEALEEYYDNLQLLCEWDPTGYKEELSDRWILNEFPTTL
Experiment: cell-based or functional assay

B1: eukaryotic translation elongation factor 1A (eEF1A), wild type (natural protein, S. cerevisiae, UniProt P02994 1-458, looked up)
chain: MGKEKSHINVVVIGHVDSGKSTTTGHLIYKCGGIDKRTIEKFEKEAAELGKGSFKYAWVLDKLKAERERGITIDIALWKFETPKYQVTVIDAPGHRDFIKNMITGTSQADCAILIIAGGVGEFEAGISKDGQTREHALLAFTLGVRQLIVAVNKMDSVKWDESRFQEIVKETSNFIKKVGYNPKTVPFVPISGWNGDNMIEATTNAPWYKGWEKETKAGVVKGKTLLEAIDAIEQPSRPTDKPLRLPLQDVYKIGGIGTVPVGRVETGVIKPGMVVTFAPAGVTTEVKSVEMHHEQLEQGVPGDNVGFNVKNVSVKEIRRGNVCGDAKNDPPKGCASFNATVIVLNHPGQISAGYSPVLDCHTAHIACRFDELLEKNDRRSGKKLEDHPKFLKSGDAALVKFVPSKPMCVEAFSEYPPLGRFAVRDMRQTVAVGVIKSVDKTEKAAKVTKAAQKAAKK
in vitro (−)RNA synthesis by the TCV RdRp on a TBSV (+)RNA template after pre-incubation of purified wt eEF1A with the TCV RdRp: ~5 fold
